Results on two molecules are retold here after patent US11311610B2, “Immune-modulating agents and uses therefor” (UNIVERSITY OF TECHNOLOGY SYDNEY, priority 2010, dated 2022).

The test system of assay [1] is immune cell invasion of pancreatic islets. As to the kind of experiment: Insulitis in NOD mouse model of type 1 diabetes. It is filed as in vivo. The note with it: NOD mice, 6 injections every second day from 5 weeks, sacrificed at 10 weeks. An excerpt: Non-obese diabetic (NOD) mice (model of Type 1 diabetes) were given 6 injections (on every second day) of proteinaceous compound beginning at 5 weeks of age and animals were sacrificed at 10 weeks of age (i.e. when insulitis develops). Subsequently, formalin-fixed, paraffin-embedded pancreata was stained with haematoxylin and eosin to assess islet inflammation (i.e., insulitis).
Islet insulitis was scored as 0 (healthy islet), 1 (peri-insulitis up to 25% of islet occupied by leukocytes), 2 (leukocytic infiltration from 25% up to 50% of islet mass), 3 (leukocytic infiltration from 50% up to 75% of islet mass) or 4 (less than 25% of islet mass present). Accordingly, the greater the percentage of islets with higher insulitis scores the worse the prognosis for diabetes development would be for that animal.

Assay [2] deals with LPS-induced inflammatory response. The assay can be described thus: Endotoxin (LPS)-induced inflammation in mice, co-injection. It is filed as in vivo, BALB/c mice. As to the method: FIG. 9 is a graphical representation showing LPS neutralization by FhHDM-1. The ability of FhHDM-1 (Δ), FhHDM-1 p1 (●) or FhHDM-1 p3 (▪) to bind to LPS was investigated by (A) incubating a range of concentrations of proteins (0.02-2 μg/well) in an LPS-coated (100 ng/well) microtitre plate. Bound peptides were detected by ELISA using rabbit anti-FhHDM-1 as a primary antibody. (B) FhHDM-1 or derived peptides (0.1 μg) were incubated in the presence of LPS (0.05-5 μg/well) and bound peptides measured as described above. Binding of peptides to the LPS-immobilized plates was expressed as a percentage of that measured for 2 μg (for panel A) or 0.1 μg (for panel B) of FhHDM-1. Data are the means±SD from three separate experiments. (C) FhHDM-1 and FhHDM-1 p3 but not FhHDM-1 p1 reduced the interaction between LPS and LBP as effectively as LL-37. LPS-coated microtitre plates were incubated with 5 μg/well of LL-37, FhHDM-1 or derived peptides for 1 h prior to the addition of 10% human sera in PBS. Interaction of LBP with LPS was measured by ELISA using an anti-LBP primary antibody and expressed as a percentage of that detected for 10% sera in the absence of added peptides. Data are the mean±SD of three separate experiments. Statistical significance was calculated using the student t-test and represent a comparison to the binding of 10% sera to immobilized LPS. (D) Binding of FITC-conjugated LPS to RAW264.7 cells was inhibited by LL-37, FhHDM-1 and peptides. RAW264.7 cells (5×10^5 cells/mL) were incubated with 1 μg/mL of FITC-conjugated LPS in the presence of increasing concentrations (0.1-10 μg/mL) of FhHDM-1, FhHDM-1 p1 and FhHDM-1 p3 and LL-37 in RPMI 1640 containing 10% FBS for 20 min at 4° C. The binding of FITC-LPS was analyzed by flow cytometry. LPS binding was expressed as a percentage of the mean fluorescence obtained for the addition of FITC-LPS to cells in the absence of peptides. Data are the mean±SD of two independent experiments. (E) FhHDM-1 and FhHDM-1 p3 both suppress the inflammatory response induced by LPS in mice. BALB/c mice were intra-peritoneally injected with 1 μg of LPS alone or combined with 1 μg of FhHDM-1, FhHDM-1 p3 or LL-37. Two hours later, sera was collected and serum levels of TNF and (F) IL-10 measured by ELISA. (G) Peritoneal macrophages were isolated, cultured unstimulated in media overnight and then levels of TNF and (H) IL-10 in the culture measured by ELISA. Data are the mean±SD of six mice in each group. Statistical significance represents a comparison to the levels of cytokines secreted by mice given LPS only.
Human Defense peptides protect against harmful inflammatory responses by preventing activation of macrophages by classical TLR ligands such as LPS (Scott et al. 2002, J. Immunol. 169, 3883-3891). Here, the inventors employed a murine model to examine whether FhHDM-1 and derived peptides can suppress LPS-induced Th1 inflammation. BALB/c mice were injected intra-peritoneally with 1 μg of LPS alone or LPS combined with 1 μg of FhHDM-1, FhHDM-1 p3 or LL-37. Two hours later, sera was collected and serum levels of the pro-inflammatory mediators TNF and IL-10 were measured by ELISA. […] Because macrophages are the main source of pro-inflammatory mediators in this murine model of inflammation, peritoneal macrophages were isolated from treated mice (LPS±FhHDM-1, peptides or LL-37 as described above), cultured unstimulated in media overnight and then levels of TNF and IL-10 in the culture media were measured by ELISA.
Six week-old female BALB/c mice were purchased from ARC (Perth, Australia) and maintained according to the guidelines of the University of Technology Sydney Animal Care and Ethics committee. For the analysis for endotoxin-induced inflammation, mice were intra-peritoneally injected with 1 μg of E. coli LPS (serotype 111:B4; Sigma) either with or without 1 μg FhHDM-1 or derived peptides. After 2 h mice were sacrificed by cervical dislocation. […]

Assay [3] deals with primary human macrophages. As to the kind of experiment: Confocal microscopy of macrophages incubated with FhHDM-1. The note with it: 10 μg/mL for 2 h. Format: cell-based. As to the method:
FIG. 10 is a photographic representation showing representative immunofluorescent images obtained by confocal microscopy at an original magnification 100× of primary human macrophages (A) and (C) incubated with recombinant FhHDM-1 (10 μg/mL for 2 h). Images (B) and (D) were experimental controls incubated with media only. Cells were stained with mouse anti-His MAb (1/2000), goat-anti-mouse Alexa-488-conjugated secondary antibody (1/1000) (green staining) and DiI plasma membrane stain (red staining). DAPI was used for identification of the cell nucleus (blue staining).

Where [4] appears, read: BALB/c mice, 1 μg LPS mixed with 1 μg i.p., 2 h.
The mark [5] stands for this setting: macrophages from treated mice, cultured unstimulated overnight.

Turning to “KARDRAMAYLAKDNLGEKITEVITILLNRL (FhHDM-1 peptide 1 comprising a truncated amphipathic helix contained in FhHDM-1) [FhHDM-1 p1, peptide in which the amphipathic helix is truncated]”, the “immune cell invasion of pancreatic islets (insulitis)” value in assay [1] is given as “no significant activity”.

B1: FhHDM-1: 90-residue polypeptide from F. hepatica, Helminth Defense Molecule-1 (SEQ ID NO:24); recombinant form minus N-terminal signal peptide, expressed in E. coli (protein, listed as Fasciola hepatica)
chain: MRFIVLLCLAEVLLAAYVEARPSEESREKLRESGRKMVKALRDAVTKAYEKARDRAMAYLAKDNLGEKITEVITILLNRLTDRLEKYAGN
On to B1, for which, in assay [2] (setting [4]), the “serum levels of IL-10” value was “significant reduction” and the “serum levels of TNF” value was “significant reduction”. In assay [2] (setting [5]), the “LPS-induced secretion of IL-10 from peritoneal macrophages” value was “significantly inhibited” and the “TNF secreted from peritoneal macrophages” value is reported as “significantly reduced”. Further, the “interaction with the plasma membrane of macrophages” value in assay [3] is given as “interacts with the plasma membrane”.
